Test results published in patent US20180258172A1.

Legend:
[1] = target: human zB7H6 (full-length, on cells) (human) (UniProt Q68D85); test: competition flow cytometry, zB7H6-transfected P815 cells, 100-fold mass excess of isotype control antibody (no competition)
[2] = target: human zB7H6 (full-length, on cells) (human) (UniProt Q68D85); test: competition flow cytometry, zB7H6-transfected P815 cells, 100-fold mass excess of isotype control antibody against NKp30/mFc2-biotin (no competition)

Chain of human zB7H6 (full-length, on cells) (human) (Q68D85 25-454): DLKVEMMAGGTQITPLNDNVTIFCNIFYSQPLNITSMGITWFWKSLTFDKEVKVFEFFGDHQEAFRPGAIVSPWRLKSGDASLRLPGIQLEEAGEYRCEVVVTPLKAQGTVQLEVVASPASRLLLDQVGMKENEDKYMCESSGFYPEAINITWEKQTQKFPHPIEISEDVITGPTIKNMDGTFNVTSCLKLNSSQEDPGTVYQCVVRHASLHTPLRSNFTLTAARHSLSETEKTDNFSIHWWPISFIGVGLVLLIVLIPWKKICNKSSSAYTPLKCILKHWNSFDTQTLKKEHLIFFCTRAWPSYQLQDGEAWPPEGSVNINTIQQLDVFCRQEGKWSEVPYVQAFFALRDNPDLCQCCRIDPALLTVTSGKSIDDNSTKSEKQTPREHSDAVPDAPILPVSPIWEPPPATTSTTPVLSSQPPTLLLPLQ

isotype control antibody
MFI of anti-zB7H6-A647 in the presence of the competitor [1]: 500 | MFI of NKp30/mFc2-biotin in the presence of the competitor [2]: 775
